Data from publication PMC4838190 (Molecular cell, 2015).

Target: cSH2 domain of PLCγ (isolated, solution experiments)
Assay: NMR titration

- stoichiometry N: 1 FGFR2K^pY769 per cSH2
B1: activated FGFR2 kinase, mono-phosphorylated on Tyr-769 (FGFR2K^pY769) (domain or fragment)
chain: MGSSHHHHHHSQDPMLAGVSEFELPEDPKWEFPRDKLTLGKPLGEGAFGQVVMAEAVGIDKDKPKEAVTVAVKMLKDDATEKDLSDLVSEMEMMKMIGKHKNIINLLGACTQDGPLYVIVAYASKGNLREYLRARRPPGMELSPDINRVPEEQMTFKDLVSCTYQLARGMEYLASQKCIHRDLAARNVLVTENNVMKIADFGLARDINNIDFFKETTNGRLPVKWMAPEALFDRVYTHQSDVWSFGVLMWEIFTLGGSPYPGIPVEELFKLLKEGHRMDKPANCTNELYMMMRDCWHAVPSQRPTFKQLVEDLDRILTLTTNEEYLDLSQPLEQ
modifications: phosphotyrosine at 769
